Assay in all cases: EMSA
Conditions in all cases: EMSA: fluorescein-12 ssRNA incubated with MBP-tagged proteins, agarose gel; buffer, salt, pH and temperature not in the material
(A gel shift assay detects complexes by their altered migration in electrophoresis.)

For data set [1], the system named is Pdd1p MIM14_FL (Tetrahymena (species not given)).
Data set [2] concerns Pdd1p MIM22+Ins6K_FL (Tetrahymena (species not given)).
The test system of data set [3] is Pdd1p WT_FL (Tetrahymena (species not given)).
In data set [4] the test system is Pdd1p WT_HNG1 (hinge region 1) (Tetrahymena (species not given)).
For data set [5], the system named is Pdd1p WT_HNG2 (hinge region 2) (Tetrahymena (species not given)).

As usually defined, the Kd is a measure of binding affinity in units of concentration. Consider EGFP ssRNA, for which the Kd in data set [1] is 340 nM; in data set [2], 347 nM; in data set [3] it was 65 nM; in data set [4], 130 nM; in data set [5], more than 630 nM.
